In assay [1] the test system is HBV. The experiment in a line: rcDNA and cccDNA in HBV-infected primary human hepatocytes treated with IFNλ1 protein. In kind it is cell-based. The note with it: primary human hepatocytes persistently infected with HBV, 15 days treatment. The method, then: Primary human hepatocytes persistently infected with HBV were treated with IFNλ1 protein for 15 days, and rcDNA and cccDNA were quantified.
Primary human hepatocytes persistently infected with HBV for 22 days or longer (PhoenixBio Co., Ltd., Japan) were cultured in a medium containing recombinant human IFN-lambda 1 (R&D systems) with medium replacement every 5 days, and the cells were collected after 15 days.
DNA in the cells were extracted by the sodium iodide method.
The cells were mixed with 200 μL of lysis buffer (10 mM EDTA, 500 mM 2-mercaptoethanol, 50 mM Tris-HCl, 75 mM KCl, 5% sarcosyl, 0.1 μg/μL protease K, pH 8.0), followed by heating at 55° C. for 20 minutes. After addition of 300 μL of a NaI solution (40 mM Tris-HCl, 20 mM EDTA, 7.6 M sodium iodide, coprecipitant), the mixture was allowed to stand at room temperature for 15 minutes. After addition of 600 μL of mixed alcohols (40% isopropanol, 60% 1-butanol), the mixture was cooled on ice for 15 minutes. The mixture was centrifuged at 4° C. at 15,000×g for 20 minutes to precipitate DNA. […]
were used, and an aliquot equivalent to 250 ng gDNA was measured according to the protocol of THUNDERBIRD Probe qPCR Mix (TOYOBO). […]
(§1) were used, and the Plasmid-Safe ATP-dependent DNase-treated product (equivalent to 50 ng total DNA) was measured according to the protocol of THUNDERBIRD Probe qPCR Mix (TOYOBO). […]

Assay [2] deals with HBV. The experiment in a line: cccDNA in HepG2 cells stably expressing HBV. Type of assay: cell-based, human. The note with it: 5 days, IRF1 plasmid 0.5 μg/well, IFN-lambda 1 100 ng/mL, or supernatant every day. The method, then: HepG2 cells made susceptible to HBV infection (HepG2-hNTCP-30 cells) were transfected with a 1.3-fold longer gene of HBV genotype C to prepare cells stably expressing HBV.
The primary human hepatocyte-derived human IRF1 gene (GenBank Accession No. NM_002198.3) was cloned into a pCI-neo Mammalian Expression Vector (Promega) to construct an IRF1 plasmid.
Using Lipofectamine 3000 (Invitrogen), the IRF1 plasmid (0.5 μg/well) was introduced by reverse transfection into HepG2 cells stably expressing HBV (2×10^5 cells/well, 48-well plate).
As an empty plasmid, a pCI-neo Mammalian Expression Vector was used.
Using the culture supernatant of the HepG2 cells stably expressing HBV (2×10^5 cells/well, 48-well plate) transfected with the IRF1 plasmid or the empty plasmid (0.5 μg/well), untransfected HepG2 cells stably expressing HBV (2×10^5 cells/well, 48-well plate) were treated every day for 5 days. Likewise, HepG2 cells stably expressing HBV were treated for 5 days with a medium containing recombinant human IFN-lambda 1 (100 ng/mL, R&D systems).
DNA in the cells were extracted by the sodium iodide method. […]
as §1

B1: IFNλ1 protein: recombinant human IFN-lambda 1 (R&D systems) (protein, UniProt Q8IU54 20-200, looked up)
Interferon lambda-1: GPVPTSKPTTTGKGCHIGRFKSLSPQELASFKKARDALEESLKLKNWSCSSPVFPGNWDLRLLQVRERPVALEAELALTLKVLEAAAGPALEDVLDQPLHTLHHILSQLQACIQPQPTAGPRPRGRLHHWLHRLQEAPKKESAGCLEASVTFNLFRLLTRDLKYVADGNLCLRTSTHPEST
In the case of B1, in assay [1], the cccDNA levels entry is listed as “reduced in a manner dependent on the amount” and the rcDNA levels entry is reported as “reduced in a manner dependent on the amount”. Besides, the cccDNA entry in assay [2] is listed as “not reduced”.

The record behind these values is patent US20250041326A1, “THERAPEUTIC AGENT FOR REFRACTORY VIRAL INFECTIONS” (TOKYO METROPOLITAN INSTITUTE OF MEDICAL SCIENCE, priority 2021, published 2025).
